In paper PMC3232246:

Molecular target: EGFP-tagged Rac1-Y64F (human), P63000
Assay: co-IP; MEF co-transfected with an EGFP-Rac1 construct and Flag-βPIX, Myc-Tiam1 or Myc-RhoGDI; modified RIPA buffer; 800 µg lysate, anti-GFP antibody and protein A sepharose, 4 °C; blots with anti-Flag or anti-Myc, normalised to the precipitated EGFP-Rac1
Settings: remark: other sources report otherwise

percent drop in binding against wild type: > 50%
B1: Myc-tagged RhoGDI, P52565 1-204 (natural protein)
chain: MAEQEPTAEQLAQIAAENEEDEHSVNYKPPAQKSIQEIQELDKDDESLRKYKEALLGRVAVSADPNVPNVVVTGLTLVCSSAPGPLELDLTGDLESFKKQSFVLKEGVEYRIKISFRVNREIVSGMKYIQHTYRKGVKIDKTDYMVGSYGPRAEEYEFLTPVEEAPKGMLARGSYSIKSRFTDDDKTDHLSWEWNLTIKKDWKD
